{
  "source": "patent US20060234940A1",
  "about": "(OSI PHARMACEUTICALS, published 2006)",
  "key": {"[1]": {"target": "T1, porcine kidney DP IV, wild type (porcine, UniProt P22411 38-766, natively glycosylated (Asn279 among others, as seen in the crystal))", "T1 construct": "In the crystal a 2-2-2 symmetric tetramer (dimer of dimers); also called p wt DP IV; p wt", "T1 sequence (P22411 38-766)": "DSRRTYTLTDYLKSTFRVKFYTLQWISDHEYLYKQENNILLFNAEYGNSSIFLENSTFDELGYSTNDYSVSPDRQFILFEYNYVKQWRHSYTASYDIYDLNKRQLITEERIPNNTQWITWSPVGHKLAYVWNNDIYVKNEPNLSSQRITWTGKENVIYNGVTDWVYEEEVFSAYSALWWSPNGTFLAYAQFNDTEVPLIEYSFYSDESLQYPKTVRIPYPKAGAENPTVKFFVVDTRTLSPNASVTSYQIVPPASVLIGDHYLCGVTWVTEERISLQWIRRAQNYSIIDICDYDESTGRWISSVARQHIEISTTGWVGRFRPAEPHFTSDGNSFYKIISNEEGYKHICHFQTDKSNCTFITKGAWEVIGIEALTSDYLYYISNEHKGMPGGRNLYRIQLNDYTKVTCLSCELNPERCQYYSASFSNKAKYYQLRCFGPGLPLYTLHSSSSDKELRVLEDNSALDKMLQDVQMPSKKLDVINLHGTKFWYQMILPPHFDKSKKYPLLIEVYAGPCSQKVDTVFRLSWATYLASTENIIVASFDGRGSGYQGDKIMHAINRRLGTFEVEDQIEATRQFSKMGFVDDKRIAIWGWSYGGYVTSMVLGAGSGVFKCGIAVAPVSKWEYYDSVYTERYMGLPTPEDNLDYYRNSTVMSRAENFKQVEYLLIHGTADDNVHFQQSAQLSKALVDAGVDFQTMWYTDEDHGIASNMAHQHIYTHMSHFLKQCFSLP", "assay": "MALDI-TOF MS, inhibition of DP IV-catalyzed truncation of the substrate GIP after preincubation with TFTSDY"}, "[2]": {"target": "T1, porcine kidney DP IV, wild type", "assay": "MALDI-TOF MS, inhibition of DP IV-catalyzed truncation of the substrate GLP-1 after preincubation with TFTSDY"}, "[3]": {"target": "T1, porcine kidney DP IV, wild type", "assay": "MALDI-TOF MS, inhibition of DP IV-catalyzed truncation of the substrate RANTES1-15 after preincubation with TFTSDY"}, "DP IV": {"target": "DP IV", "sequence (chain, as listed by the source)": "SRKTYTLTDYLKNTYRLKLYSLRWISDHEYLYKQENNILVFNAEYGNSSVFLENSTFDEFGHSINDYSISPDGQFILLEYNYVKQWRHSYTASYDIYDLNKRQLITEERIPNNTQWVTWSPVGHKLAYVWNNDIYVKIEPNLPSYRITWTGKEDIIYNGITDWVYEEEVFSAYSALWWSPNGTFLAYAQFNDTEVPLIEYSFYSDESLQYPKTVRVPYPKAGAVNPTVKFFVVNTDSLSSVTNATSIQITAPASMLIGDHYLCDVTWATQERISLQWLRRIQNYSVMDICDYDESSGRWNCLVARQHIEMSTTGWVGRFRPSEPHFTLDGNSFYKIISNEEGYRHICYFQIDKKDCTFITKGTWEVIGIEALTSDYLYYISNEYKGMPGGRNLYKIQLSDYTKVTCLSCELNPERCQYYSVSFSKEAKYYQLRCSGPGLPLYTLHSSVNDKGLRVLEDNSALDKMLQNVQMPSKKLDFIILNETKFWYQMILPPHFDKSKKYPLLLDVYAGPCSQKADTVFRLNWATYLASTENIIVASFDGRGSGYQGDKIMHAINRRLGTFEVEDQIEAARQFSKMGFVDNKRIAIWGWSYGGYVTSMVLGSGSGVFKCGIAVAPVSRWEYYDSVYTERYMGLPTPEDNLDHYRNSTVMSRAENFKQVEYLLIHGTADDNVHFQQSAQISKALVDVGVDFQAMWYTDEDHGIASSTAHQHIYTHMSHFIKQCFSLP", "assay": "photometric assay, competition with the standard substrate GP-4-nitroanilide; source of DP IV not stated"}, "[4]": {"target": "T1, porcine kidney DP IV, wild type", "assay": "MALDI-TOF MS, inhibition of DP IV-catalyzed truncation of the substrate NPY after preincubation with TFTSDY"}, "[5]": {"target": "T1, porcine kidney DP IV, wild type", "assay": "MALDI-TOF MS, inhibition of DP IV-catalyzed truncation of the substrate glucagon after preincubation with TFTSDY"}, "[6]": {"target": "T2, recombinant human DP IV, mutation W629A (human, UniProt P27487 37-766)", "T2 construct": "range 37-766; Same Pichia construct as the wild type, single mutation by site-directed mutagenesis; also called mu 16 DP IV; mu 16", "T2 sequence (P27487 other isoform, or with tags, fused parts or gaps W629A W629A limits assumed)": "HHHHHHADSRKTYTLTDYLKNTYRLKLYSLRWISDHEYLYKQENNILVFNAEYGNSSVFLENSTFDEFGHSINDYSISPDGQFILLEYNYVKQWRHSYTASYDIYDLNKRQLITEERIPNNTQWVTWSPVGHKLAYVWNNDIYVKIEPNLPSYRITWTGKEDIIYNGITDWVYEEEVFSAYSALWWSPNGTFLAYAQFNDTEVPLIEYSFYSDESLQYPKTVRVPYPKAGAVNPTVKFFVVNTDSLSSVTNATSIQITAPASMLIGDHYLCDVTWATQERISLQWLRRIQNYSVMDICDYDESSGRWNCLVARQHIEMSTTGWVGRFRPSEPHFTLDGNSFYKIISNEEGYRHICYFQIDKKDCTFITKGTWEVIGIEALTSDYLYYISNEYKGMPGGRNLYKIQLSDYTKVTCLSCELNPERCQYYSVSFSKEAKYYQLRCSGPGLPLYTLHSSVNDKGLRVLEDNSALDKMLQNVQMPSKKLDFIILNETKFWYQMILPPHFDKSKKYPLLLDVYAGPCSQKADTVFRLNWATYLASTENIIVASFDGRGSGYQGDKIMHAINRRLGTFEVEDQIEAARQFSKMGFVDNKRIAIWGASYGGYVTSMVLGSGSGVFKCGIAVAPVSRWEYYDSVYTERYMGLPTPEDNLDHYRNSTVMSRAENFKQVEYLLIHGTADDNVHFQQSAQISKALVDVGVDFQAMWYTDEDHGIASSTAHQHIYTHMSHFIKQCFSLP", "assay": "photometric assay, competition with the standard substrate GP-4NA", "experimental": "(§1) In order to measure the inhibition constant Kᵢ a photometric assay was used The peptides were measured as competitors of the standard substrate GP-4-Nitroanilide. Three different substrate concentrations (0.4 mM to 0.05 mM) were combined with 8 different competitor concentrations (0.5 mM to 2 μM). […] Experiments were carried out under standard conditions: 30° C. in pH 7.6 40 mM HEPES (Sigma-Aldrich) buffer. Nitroaniline production was monitored using a HTS 7000+ microplate reader (PerkinElmer, Überlingen, Germany)."}, "[7]": {"target": "T3, recombinant human DP IV, mutation R560A (human, UniProt P27487 37-766)", "T3 construct": "range 37-766; Same Pichia construct as the wild type, single mutation by site-directed mutagenesis; also called mu 15 DP IV; mu 15", "T3 sequence (P27487 other isoform, or with tags, fused parts or gaps R560A R560A limits assumed)": "as the sequence (P27487 other isoform, or with tags, fused parts or gaps W629A W629A limits assumed) above, with R530A, A599W counted along it", "assay": "photometric assay, competition with the standard substrate GP-4NA", "experimental": "as §1"}, "[8]": {"target": "T1, porcine kidney DP IV, wild type", "assay": "photometric assay, competition with the standard substrate GP-4NA", "experimental": "as §1"}},
  "note": "Where no end group is shown, it is not given here. The star is where a group is joined. Thia = thiazolidide, C1CN(*)CS1",
  "data": [
    {"binder": "TFTSDY (also called glucagon5-10; T(5)-F-T-S-D-Y)", "note": "[hexapeptide TFTSDY]", "values": [
      {"measurement": "Ki", "setting": "[1]", "result": 65.9, "unit": "µM"},
      {"measurement": "Ki", "setting": "[2]", "result": 13.7, "unit": "µM"},
      {"measurement": "Ki", "setting": "[3]", "result": 12300, "unit": "µM"},
      {"measurement": "Ki", "setting": "DP IV", "result": 710, "unit": "µM"},
      {"measurement": "Ki", "setting": "[4]", "result": 17.2, "unit": "µM"},
      {"measurement": "Ki", "setting": "[5]", "result": 6.8, "unit": "µM"}
    ]},
    {"binder": "RRLSYSRRRFE-Thia (also: linkage of decapeptide to Glu not explained)", "note": "[Transp 01 (RRLSYSRRRF-E-Thia)]", "values": [
      {"measurement": "Ki", "setting": "[6]", "result": 0.0855, "unit": "µM"},
      {"measurement": "Ki", "setting": "[7]", "result": 0.0769, "unit": "µM"}
    ]},
    {"binder": "YAESTF-NH2", "note": "[YAESTF amide]", "values": [
      {"measurement": "Ki", "setting": "[6]", "result": 1.06, "unit": "µM"},
      {"measurement": "Ki", "setting": "[7]", "result": 1.14, "unit": "µM"}
    ]},
    {"binder": "HSDGIFTDSYSRYRKQMAVKKYLAAVL (peptide, UniProt P18509 132-158, looked up, ends and bridges not checked, range 132-158; also called PACAP(1-27))", "note": "[PACAP-27]", "values": [
      {"measurement": "Ki", "setting": "[8]", "result": 54.3, "unit": "µM"}
    ]}
  ]
}
